Results taken from patent publication US8815213B2, “RGD-(bacterio)chlorophyll conjugates for photodynamic therapy and Imaging of Necrotic tumors” (Yeda Research and Development Co. Ltd., priority 2008, dated 2014).
Structures can show the parent of a compound that is named as a salt. Where two headings read alike, the source gives them in different places.

Columns and labels:
[1] = tested on: MDA-MB-231-RFP necrotic tumors; test: Fluorescence signal measurement in necrotic tumors, tumor vs. collateral side; type: in vivo; conditions: average of 9 mice
Procedure: (viii) Fluorescence signal measurement in necrotic tumors—Tumor margins—region of interest (ROI), from the whole body in-vivo images was marked and the fluorescence signal within the circled margins was expressed in photon/sec.
The same ROI was used to measure photon/sec in the collateral side. In addition, for background measurements, tumor and collateral side ROIs were measured in three untreated mice and averaged. Measured values of the fluorescence from each ROI were divided by the area to provide normalized fluorescence signal intensity in photon/sec/cm^2. Signal measurements were collected from 15 min to 216 h post compound 13 injection. In each time point, the background was subtracted and the average was calculated as was the ratio between the fluorescence in the tumor margins and the collateral side.
In order to evaluate semi-quantitatively the accumulation pattern of compound 13 in necrotic tumors, the average fluorescence signal for compound 13 in necrotic tumors of 9 mice was calculated and plotted over 216 h, at several time points (FIG. 8). From 12 h post injection and onward the fluorescence signal from the tumor became distinctively stronger than that of an equivalent control region on the collateral side. The ratio of the fluorescence between the tumor and the collateral side increased in time and reached a plateau at ˜8 from 192 h.

[2] = tested on: human ovarian MLS-mBanana primary tumors, necrotic (>1 cm^3); test: In-vivo NIR fluorescence imaging of uptake in MLS-mBanana primary necrotic tumors; design: species or system CD-1 nude female mice
From the text: In order to establish the generality of the results obtained in the experiments above, the accumulation of compound 13 in the necrotic domain was further examined in a different tumor type, generated from MLS-mBanana human ovarian cancer cell line. […] Shortly after injection, the compound 13 NIR fluoresces was mostly detected from the liver and the tumor.

[3] = tested on: MDA-MB-231-RFP primary non-necrotic tumors; test: Competition assay between compound 13 and free c(RGDfK) binding; type: in vivo, mice; conditions: 24 h
Procedure: (ix) Competition assay between compound 13 and free c(RGDfK) binding—Mice were injected with excess (8.5 μmol) of free c(RGDfK) peptide one hour prior to the injection of compound 13 (140 nmol). The control group was injected only with compound 13 (140 nmol). Fluorescent images were taken 24 h post compound 13 injection. Fluorescence imaging main filter set was used as described in (vii).
Compound 13 was administrated with or without prior injection of c(RGDfK) as described in Example 3.

[4] = tested on: MDA-MB-231-RFP necrotic tumor domains; test: Excised tumor fluorescence imaging, viable versus necrotic domains; type: in vivo, mice
Procedure: (§1) Mice were sacrificed, tumors were excised, cut in half and imaged at different time intervals: 10 min, 1, 4 and 24 h, 3, 5 and 7 days for MDA-MB-231-RFP and 7 days for MLS-mBanana using the Xenogen IVIS® System. Filter sets used for the fluorescence imaging are described in (vii).
The markedly different dynamic fluorescence patterns of necrotic and non-necrotic breast tumor xenografts implanted in the mammary pads, motivated investigation of the correlation between the tumor histology and compound 13 fluorescence signal accumulation. […] Images were taken at several time points (10 min, 1, 4 and 24 h, 3, 5 and 7 days post injection) using Xenogen IVIS® System as described in Materials and Methods, section (vii). Results shown in FIGS. 23-29 present compound 13 fluorescence accumulation at different time points. For each time point, 3 animals were tested. […] At 4 h, there was some diffusion towards the necrotic domain. […] In this set of experiments it was shown that as time progresses, compound 13 moves through the viable domain into the necrotic domain and accumulates there specifically for a long period of time.
In view of the pattern of accumulation observed for compound 13, other Bchl derivatives were tested. […] Images were taken using Xenogen IVIS® System as described above. […] Similar results were observed when tumors were excised 3 and 5 days post drug injection (N=3 for each time point).

[5] = tested on: MLS-mBanana necrotic tumor domains; test: Excised tumor fluorescence imaging, MLS-mBanana; type: in vivo, mice; conditions: 7 days post drug injection
Procedure: as §1
Here the results were somewhat different. In most cases the necrosis pattern in this type of tumor was not central, namely, there was a wide spread necrosis that was not specifically located in the middle of the tumor or generated from one place in the tumor. In these cases, the accumulation was not as prolonged. In the few cases where central necrosis was observed, the accumulation pattern was similar to that in the MDA-MB-231-RFP tumors. FIGS. 31-32 show the results obtained 7 days post drug injection.

[6] = tested on: orthotopic human breast MDA-MB-231-RFP primary tumor, necrotic (~1 cm^3); conditions: mouse, in vivo
Procedure: (§2) (vi) Mouse tumor model—MDA-MB-231-RFP fluorescent human breast cancer cells and MLS-mBanana fluorescent human ovarian cancer cells (5×10^6 in 100 μl saline) were trypsinated and collected at subconfluency and then inoculated into the back or mammary fat pad of female mice. Tumors were allowed to develop to two desired sizes—necrotic tumors (˜1 cm^3, within 3-4 weeks) and non-necrotic tumors (˜0.5 cm^3 within 1-2 weeks).
(§3) (vii) Whole body fluorescence imaging—Mice were anaesthetized by i.p. injection of 30 μl mixture of 85:15 ketamine:xylazine. […] Red fluorescent protein (RFP), pRSETB-mBanana and the photosensitizers fluorescence were monitored by in-vivo optical imaging system, IVIS®100 (Xenogen Corp., Alameda, Calif.). Main filter set for tumor imaging comprised excitation filter at 500-550 nm and emission filter at 575-650 nm; Background filter set for subtracting tissue auto-fluorescence comprised excitation filter at 460-490 nm and emission filter at 575-650 nm. Drugs imaging main filter set comprised excitation filter at 665-695 nm and emission filter at 810-875 nm. Images were obtained during the same exposure time and are illustrated on the same linear color scale to allow for a qualitative comparison.
The accumulation pattern of compound 13 in necrotic MDA-MB-231-RFP tumors (≧1 cm^3) in vivo was examined. […] Whole animal images were recorded concomitantly, using the filter sets as described in Materials and Methods section (vii) above. Dynamic fluorescence images were acquired every 1-1.5 h for 9 h, and at 24 h post injection of compound 13 (FIGS. 4A-4B), and then for every 24 h for the next 7 days (FIGS. 5A-5B).

[7] = tested on: MDA-MB-231-RFP non-necrotic tumors (~0.5 cm^3); conditions: mouse, in vivo
Procedure: as §2, §3
(§4) The same parameters were next examined in tumors ≦0.5 cm^3, which are non-necrotic.

[8] = tested on: MLS-mBanana non-necrotic tumors (~0.5 cm^3); conditions: mouse, in vivo
From the text: Red fluorescent protein (RFP), pRSETB-mBanana and the photosensitizers fluorescence were monitored by in-vivo optical imaging system, IVIS®100 (Xenogen Corp., Alameda, Calif.). Main filter set for tumor imaging comprised excitation filter at 500-550 nm and emission filter at 575-650 nm; Background filter set for subtracting tissue auto-fluorescence comprised excitation filter at 460-490 nm and emission filter at 575-650 nm. Drugs imaging main filter set comprised excitation filter at 665-695 nm and emission filter at 810-875 nm. Images were obtained during the same exposure time and are illustrated on the same linear color scale to allow for a qualitative comparison.

[9] = tested on: MDA-MB-231-RFP non-necrotic and necrotic tumors at the mammary pad; test: Uptake of compound 25 in MDA-MB-231-RFP primary, necrotic and non necrotic tumors; type: in vivo, CD1-nude mice
Procedure: Two experiments were performed in order to determine whether the tumor up-take of compound 13 and the resulted accumulation of the NIR fluorescence signal are driven by the RGD moiety. In the first experiment the accumulation of the fluorescence signal at different times after compound 13 injection was compared to that of free 2H-MLT (compound 25) injection to CD1-nude mice grafted with MDA-MB-231-RFP non-necrotic (≦0.5 cm^3) and necrotic (˜1 cm^3) tumors at the mammary pad. The second experiment was a competition assay between compound 13 and free c(RGDfK).
Dynamic fluorescence images were acquired for both necrotic and non necrotic tumors every 1-1.5 h for 8.5-9 h, and at 24 h after initial injection of compound 25 (FIGS. 18A-18B and 20A-20B) and for every 24 h for the following three days (FIGS. 19A-19B and 21A-21B). […] The fluorescence signal values were ˜2 orders of magnitude smaller than the maximally observed values for compound 13 (at much longer time intervals). The fluorescence signal dropped down to non-significant values already at 20 min post injection. Meanwhile, the fluorescence signal accumulated mostly in the liver and in the heart.

[10] = tested on: xenografts of primary tumors; conditions: up to; cited from earlier work
[11] = tested on: MDA-MB-231-RFP non-necrotic tumors (~0.5 cm^3); test: In-vivo whole body NIR fluorescence imaging of drug up-take in primary non-necrotic MDA-MB-231-RFP xenograft tumors
Procedure: as §2, §3, §4

CC[C@H]1c2cc3[nH]c(c(CC(=O)OC)c4nc(cc5[nH]c(cc(n2)[C@@H]1C)c(C(C)=O)c5C)[C@@H](C)[C@@H]4CCC(=O)NCCCC[C@@H]1NC(=O)[C@@H](Cc2ccccc2)NC(=O)[C@H](CC(=O)O)NC(=O)CNC(=O)[C@H](CCCNC(=N)N)NC1=O)c(C(=O)NCCS(=O)(=O)O)c3C [compound 13, 3^1-oxo-15-methoxycarbonylmethyl-Rhodobacteriochlorin 13^1-(2-sulfoethyl) amide-17^3-c(RGDfK)amide potassium salt]
ratio of the fluorescence between the tumor and the collateral side, plateau ([1]; from 192 h post injection): ~8 | time from which tumor fluorescence signal is distinctively stronger than collateral side ([1]; post injection): ≥ 12 h | clearance compared with MDA-MB-231-RFP necrotic tumors ([2]; mouse, in vivo): markedly faster | clearance from the tumor almost completed ([2]; mouse, in vivo): 3 days | complete drug clearance by that time ([2]; mouse, in vivo): ≤ 4 days | time of maximum concentration in the necrotic zone ([2]; mouse, in vivo): 24 h | concentration in necrotic tumors versus non-necrotic tumors ([2]; same linear fluorescence scale, 2 days post injection): much higher | accumulation in the tumor ([3]; 140 nmol alone (control group)): detectable | accumulation in the tumor ([3]; 140 nmol, 1 h after 8.5 μmol free c(RGDfK)): no accumulation in the tumor was detected | location of drug fluorescence in excised tumor ([4]; 10 min to 4 h post drug injection, 15 mg/kg): only at the viable area | location of drug fluorescence in excised tumor ([4]; 24 h post injection): higher drug fluorescence from the necrotic domain | location of drug fluorescence in excised tumor ([4]; from three days post injection (3, 5 and 7 days)): shifted completely to the necrotic zone | presence of drug in excised tumor ([5]; central necrosis): clearly present in the necrotic domain | presence of drug in excised tumor ([5]; no central necrosis): not present | time of peak tumor concentration ratio, compared to other organs [6]: ≥ 48 h | clearance from the liver in the following days ([6]; iv, 15 mg/kg): completely clearing from the liver | clearance from the tumor thereafter ([6]; iv, 15 mg/kg): extremely slow clearance | clearance from the tumor after accumulation [7]: < 24 h | complete drug clearance by that time [7]: ≤ 3 days | fluorescence from the non-necrotic tumors [7]: practically no fluorescence | time of peak tumor fluorescence, averaged measurements [7]: 1 to 6.5 h | almost complete drug clearance by that time [8]: ≤ 4 days | time at which NIR fluorescence reached peak values in the tumor [8]: ~1 h | time of peak tumor fluorescence, average measurements [8]: 1 to 3.5 h

CC[C@H]1c2cc3[nH]c(c(CC(=O)OC)c4nc(cc5[nH]c(cc(n2)[C@@H]1C)c(C(C)=O)c5C)[C@@H](C)[C@@H]4CCC(=O)O)c(C(=O)NCCS(=O)(=O)[O-])c3C.[K+] [compound 25, 3^1-oxo-15-methoxycarbonylmethyl-Rhodo-bacteriochlorin 13^1-(2-sulfoethyl) amide potassium salt]
accumulation in small (non-necrotic) and large (necrotic) tumors ([9]; mouse, in vivo): no short or long term accumulation was observed | fluorescence signal values, smaller than the maximally observed values for compound 13 ([9]; mouse, in vivo): ~2 orders of magnitude | time at which fluorescence signal dropped to non-significant values ([9]; post injection): ≤ 20 min | time of maximal concentration (NIR fluorescence signal) in the tumor ([9]; post injection, if any concentration was observed at all): 5 to 10 min

Palladium 3^1-oxo-15-methoxycarbonyl-methyl-Rhodobacteriochlorin 13^1-(2-sulfoethyl)amide-17^3-c(RGDfK)amide potassium salt [compound 24]
presence of drug in excised tumor ([4]; nine days post drug injection, N=3): clearly present in the necrotic domain | accumulation in xenografts of primary tumors [10]: 4 to 8 µM | time at which NIR fluorescence reached peak values in the liver ([11]; 15 mg/kg i.v., post drug injection): 5.5 h | time at which NIR fluorescence reached peak values in the tumor ([11]; 15 mg/kg i.v., post injection): ~2.5 h | fluorescence from the non-necrotic tumors ([11]; 24 hours post injection): practically no fluorescence | time of peak tumor fluorescence, averaged measurements ([11]; post drug injection, 16 animals (compound 13), 5 animals (compound 24)): 1 to 4.5 h
